Molecular target: CMGE (Cdc45–MCM–GINS–Pol ε) (S. cerevisiae) (UniProt P29469)
Assay: negative-stain electron microscopy (2D averages, ReconSil); full CMG assembly reaction on nucleosome-flanked ARS1 origin DNA; DDK-phosphorylated double hexamers incubated with CDK, Dpb11, GINS, Cdc45, Pol ε, Sld3–Sld7, Sld2 and 5 mM ATP, 30 min at 30 °C

percent of CMG particles that are dimers (dCMGE, cis configuration): 11%
percent of CMG particles that are dimers (dCMGE, trans configuration): 70%
Substance: CMGE (Cdc45–MCM–GINS–Pol ε) (from UniProt P29469 1-868; P24279 1-971; P30665 1-933; P29496 1-775; P53091 1-1017; P38132 1-845; Q08032 1-650; Q03406 1-294; Q12146 1-194; P21951 1-2222; P24482 1-689) (complex)
